Results: paper PMC7641318

Test system: T1, hADAR2-R2D (Fig. 2C, Fig. S4, Table S4) E488Q (human), P78563-2
T1 sequence: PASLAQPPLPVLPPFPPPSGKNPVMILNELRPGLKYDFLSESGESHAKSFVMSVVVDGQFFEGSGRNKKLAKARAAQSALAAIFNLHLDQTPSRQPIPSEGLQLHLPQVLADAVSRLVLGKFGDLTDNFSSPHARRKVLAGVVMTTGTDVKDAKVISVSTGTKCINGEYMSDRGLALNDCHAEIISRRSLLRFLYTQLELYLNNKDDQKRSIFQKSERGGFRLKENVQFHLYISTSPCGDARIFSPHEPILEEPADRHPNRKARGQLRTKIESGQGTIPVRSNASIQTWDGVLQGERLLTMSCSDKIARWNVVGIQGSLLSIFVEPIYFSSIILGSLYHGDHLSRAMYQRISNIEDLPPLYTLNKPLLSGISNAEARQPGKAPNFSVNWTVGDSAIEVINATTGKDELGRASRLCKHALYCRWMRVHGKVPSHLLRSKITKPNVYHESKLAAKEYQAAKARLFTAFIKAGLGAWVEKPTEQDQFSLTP
Assay: EMSA
Details: EMSA: 20 mM Tris-HCl pH 7.0, 3.5% glycerol, 0.5% DTT, 60 mM KCl, 20 mM NaCl, 0.1 mM BME, 1.5 mM EDTA, 0.003% NP-40, 160 U/ml RNasin, 100 ug/ml BSA, 1 ug/ml …

[1] = N = 8-azanebularine at top position 13

| Sequence | Kd [1] [nM] | Kd (N = 8-azanebularine at top position 18) [nM] |
| --- | --- | --- |
| GCUCGCGAUGCUNGAGGGCUCUGAUAGC / GCUAUCAGAGCCCCCCAGCAUCGCGAGC [hGLI1-28-3' 8AN (3' extended)] | 1.79 | – |
| GCUCGCGAUGCUNGAGGGCUCUG / CAGAGCCCCCCAGCAUCGCGAGC [hGLI1-23 8AN] | 2.67 | – |
| GCAUAGCUCGCGAUGCUNGAGGGCUCUG / CAGAGCCCCCCAGCAUCGCGAGCUAUGC [hGLI1-28-5' 8AN (5' extended)] | – | 1.31 |
